Experiments:
[1] = target: recombinant mouse mannose-binding lectin (MBL) (mouse); experiment: biolayer interferometry; eOD-60mer dilutions on biosensors loaded with biotinylated recombinant mouse MBL; apparent affinity [eOD-60mer]
[2] = target: eOD-60mer (eOD-GT8 60mer; eOD-GT8 fused to lumazine synthase, self-assembled 60-mer nanoparticle); experiment: biolayer interferometry, eOD-60mer in solution on immobilized biotinylated mouse MBL; apparent affinity (avidity)

Substance | Kd [1] [pM] | Kd [2] [pM]
eOD-60mer (eOD-GT8 60mer; eOD-GT8 fused to lumazine synthase, self-assembled 60-mer nanoparticle) | 3.78 | 
recombinant mouse mannose-binding lectin (MBL) |  | 4

— patent US20210363194A1
